The labels stand for the following.
B1: Kin of IRRE-like protein 1 (Homo sapiens), Q96J84 (parent)
chain: MLSLLVWILTLSDTFSQGTQTRFSQEPADQTVVAGQRAVLPCVLLNYSGIVQWTKDGLALGMGQGLKAWPRYRVVGSADAGQYNLEITDAELSDDASYECQATEAALRSRRAKLTVLIPPEDTRIDGGPVILLQAGTPHNLTCRAFNAKPAATIIWFRDGTQQEGAVASTELLKDGKRETTVSQLLINPTDLDIGRVFTCRSMNEAIPSGKETSIELDVHHPPTVTLSIEPQTVQEGERVVFTCQATANPEILGYRWAKGGFLIEDAHESRYETNVDYSFFTEPVSCEVHNKVGSTNVSTLVNVHFAPRIVVDPKPTTTDIGSDVTLTCVWVGNPPLTLTWTKKDSNMVLSNSNQLLLKSVTQADAGTYTCRAIVPRIGVAEREVPLYVNGPPIISSEAVQYAVRGDGGKVECFIGSTPPPDRIAWAWKENFLEVGTLERYTVERTNSGSGVLSTLTINNVMEADFQTHYNCTAWNSFGPGTAIIQLEEREVLPVGIIAGATIGASILLIFFFIALVFFLYRRRKGSRKDVTLRKLDIKVETVNREPLTMHSDREDDTASVSTATRVMKAIYSSFKDDVDLKQDLRCDTIDTREEYEMKDPTNGYYNVRAHEDRPSSRAVLYADYRAPGPARFDGRPSSRLSHSSGYAQLNTYSRGPASDYGPEPTPPGPAAPAGTDTTSQLSYENYEKFNSHPFPGAAGYPTYRLGYPQAPPSGLERTPYEAYDPIGKYATATRFSYTSQHSDYGQRFQQRMQTHV

In this assay the parent is B1. Conditions: with zo1_human TJP1, Q07157.
Chain of zo1_human TJP1, Q07157 (Q07157 whole entry): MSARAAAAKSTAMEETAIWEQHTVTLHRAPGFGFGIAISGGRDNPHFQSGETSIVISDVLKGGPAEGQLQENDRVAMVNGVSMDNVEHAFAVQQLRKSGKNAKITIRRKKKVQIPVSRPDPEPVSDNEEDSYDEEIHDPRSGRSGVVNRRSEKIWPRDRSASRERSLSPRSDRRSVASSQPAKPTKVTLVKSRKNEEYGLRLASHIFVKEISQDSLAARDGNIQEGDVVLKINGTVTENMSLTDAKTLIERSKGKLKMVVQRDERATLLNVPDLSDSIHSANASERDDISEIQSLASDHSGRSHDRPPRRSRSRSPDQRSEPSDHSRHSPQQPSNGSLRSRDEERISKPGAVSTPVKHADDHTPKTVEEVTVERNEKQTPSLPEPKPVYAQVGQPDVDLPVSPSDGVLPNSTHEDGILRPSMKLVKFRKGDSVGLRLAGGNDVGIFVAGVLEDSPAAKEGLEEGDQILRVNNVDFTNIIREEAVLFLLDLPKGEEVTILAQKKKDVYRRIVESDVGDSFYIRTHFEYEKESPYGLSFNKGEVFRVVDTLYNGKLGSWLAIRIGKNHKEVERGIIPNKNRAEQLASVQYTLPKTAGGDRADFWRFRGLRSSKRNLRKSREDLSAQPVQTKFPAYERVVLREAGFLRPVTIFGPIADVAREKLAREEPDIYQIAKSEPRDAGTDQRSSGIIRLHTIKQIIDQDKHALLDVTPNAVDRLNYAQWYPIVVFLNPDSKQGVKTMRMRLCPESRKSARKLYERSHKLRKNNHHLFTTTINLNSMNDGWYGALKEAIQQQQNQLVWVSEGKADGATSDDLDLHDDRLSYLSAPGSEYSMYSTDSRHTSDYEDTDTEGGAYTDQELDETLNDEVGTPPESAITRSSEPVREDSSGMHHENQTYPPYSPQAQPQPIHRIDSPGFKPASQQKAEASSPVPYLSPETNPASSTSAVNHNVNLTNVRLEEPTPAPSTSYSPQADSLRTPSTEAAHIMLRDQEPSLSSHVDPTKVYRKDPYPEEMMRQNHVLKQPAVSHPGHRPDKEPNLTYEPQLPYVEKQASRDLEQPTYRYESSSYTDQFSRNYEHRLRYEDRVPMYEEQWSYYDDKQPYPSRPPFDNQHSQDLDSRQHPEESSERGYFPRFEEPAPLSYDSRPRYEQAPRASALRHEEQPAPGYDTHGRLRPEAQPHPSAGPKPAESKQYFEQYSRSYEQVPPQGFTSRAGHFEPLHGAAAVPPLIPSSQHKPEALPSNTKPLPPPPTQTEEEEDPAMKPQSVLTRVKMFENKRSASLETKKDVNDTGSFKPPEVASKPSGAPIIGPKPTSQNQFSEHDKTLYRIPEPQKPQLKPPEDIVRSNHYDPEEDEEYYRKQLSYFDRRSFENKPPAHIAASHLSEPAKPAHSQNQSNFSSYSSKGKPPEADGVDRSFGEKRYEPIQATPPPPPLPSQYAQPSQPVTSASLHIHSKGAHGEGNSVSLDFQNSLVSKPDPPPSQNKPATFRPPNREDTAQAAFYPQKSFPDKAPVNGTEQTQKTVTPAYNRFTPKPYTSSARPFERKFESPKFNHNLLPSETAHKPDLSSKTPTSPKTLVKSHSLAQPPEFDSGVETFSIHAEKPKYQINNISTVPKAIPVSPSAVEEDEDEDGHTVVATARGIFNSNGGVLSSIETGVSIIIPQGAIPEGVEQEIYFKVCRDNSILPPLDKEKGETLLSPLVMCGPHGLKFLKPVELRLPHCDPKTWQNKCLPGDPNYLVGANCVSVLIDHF
With Y730A, the “effect of a mutation on the interaction” value is listed as “decreasing interaction strength”.

For K729A, the “effect of a mutation on the interaction” value is “decreasing interaction strength”.

Source of the values: IntAct's records for PubMed 22262837.
